Measured values reported in the DeepSol protein solubility set.

assay: soluble on expression in E. coli; label from the status in PepcDB or PDB records

Soluble on expression in E. coli, not soluble:
MGSDKIHHHHHHMVLKVFKDHFGRGYEVYEKSYREKDSLSFFLTKEEEGKILVVAGEKAPEGLSFFKKQRAEGVSFFFCERNHENLEVLRKYFPDLKPVRAGLRASFGTGDRLGITTPAHVRALKDSGLFPIFAQQSVRENERTGRTWRDVLDDATWGVFQEGYSEGFGADADHVKRPEDLVSAAREGFTMFTIDPSDHVRNLSKLTEKERNEKFEEILRKERIDRIYLGKKYSVLGEKIEFDEKNLRDAALVYYDAIAHVDMMYQILKDETPDFDFEVSVDETETPTSPLFHIFVVEELRRRGVEFTNLALRFIGEWEKGIDYKGDLAQFEREIKMHAEIARMFEGYKISLHSGSDKFSVYPAFASATGGLFHVKTAGTSYLEAVKVISMVNPELFREIYRCTLDHFEEDRKSYHISADLSKVPEVEKVKDEDLPGLFEDINVRQLIHVTYGSVLKDASLKERLFKTLEQNEELFYETVAKHIKRHVDLLEG, MGSDKIHHHHHHMVLNINSFYKNCRGEFMRAVFIYHKNNQRMEKFYKNLLNEPDFCRICDDCYNCRGNWTFKNNVKNIVIEEVYEEFVDNPYDYLPELPEGDICIAQLHEDLLYELPLLLKEKGYKALIVPSETPHDLSLALRRDLKRVCSNYNIEFENPKPFCSLEKKEGNEYINKFIDYFKIGKPELEIEVENGLIKDVKVKISAPCGETYYIAKRLKGKAIDDLKEEIANAHHNYPCLASMEMDKELGDTILHKAGYIAFEVVEKALKK, MGSDKIHHHHHHMVLSLSSHNVIQYLQEAGLCSSEDDASDKSELPGSSKNNSDLLVTLADNRKLLVKQEHNVKNNDVAPRELFQEWLFHQLLQQFPVLGNISAIAPLVVHFDEENSILVRNYLSEYLKLATFYHNNEIFPQEIATAIGTTLAGLHRATYNRREYRDFMATAPQGEFRYGFYNPAQGVESIGPEIFGTVPTEALKFYLLYQQSESLESAIADLAYDWNPCCLTHNDLKLNNILVHSRWKKLDNCLVRLINWEACSWGDPAFDLGTLLASYLRIWLNSLVVDPTIELQESLHLALTPLESLQPSIIALIRAYLNAFPMILEYRSDFIVRVIQFAGLALIHQIQDMITCRKSFNNTDICMLQVAKSLLTMPQQGVLTIFGISESEILNPVGKVHKLPQPVKEPQLLRLYYEKTRLRGC, MGSDKIHHHHHHMVLVVDYGSQYSRLITRRIRENEVYSEVVFPDDKVDLSKVDAVILSGGPRSVYEEDAPKLPEWFQEYKGPVLAICYGMQLIVKELGGEVRRGRGEYGRTLVELSRDPIFEGIPEKVHVWMSHGDEVVRLPEGFHPIAVSETGVIAAATDGKRFWLLQFHPEVHHTEYGDRMISNFLFNVCKLEKNWKIGDLVEEKIRHIKETIGNKKAILALSGGVDSSVAAVLVHRAIGKNLVCVFVDHGLLRKNEREEVERVFKEHFDMNLVVVDARKRFLEKLRGVTDPEKKRKIIGEEFIRVFEEEAKKHDVEFLVQGTIYSDVIESAASGKTTAKIKSHHNVGGLPEKMNLKLVEPLRDLFKDEVRKVGKYLGIPDRIINRHPFPGPGLAVRVLGEVTEEKLEILREADYIFIETLRKHDYYDKVWQAFAVLLPIKSVGVKGDARAYEYVVALRAVNSVEGMTADWSRIPHDILDEAARRITREVKGVGRVVYDITSKPPATIEWE, MGSDKIHHHHHHMVNEKRLLEEFLELVQIDSETKHEAEICKVLKRKFSDLGVDVKEDDTMDITGHGAGNLICTLKGTKQTDTIYFTSHMDTVVPGNGVKPVVENGYVKTDGTTILGADDKAGLAAMFEAIKVLKEENIEHGTIEFIITVGEESGLIGAKALDRPMITASYGYALDSDGKVGNIIVAAPTQAKVRAAIFGKTAHAGVEPEKGISAITIASKAISKMPLGRIDEETTANIGRFEGGTQTNIVCDEVHILAEARSLVPEKMEAQVQKMKAAFEEAAADMGGRAEVEIEVMYPGFKYQDGDQVVEIAKKAAAKIGRPSELQTSGGGSDANVIAGHGIPTVNLAVGYEQIHTKNEKMPIEELVKTAEMVVAIIEEAAK, MGSDKIHHHHHHMVNFLNEGGYVLDFSTADFDAFTYKSIGVPLCETYRLSKGKSLIAYINDTKYEDKIKLLSDLIRYYELSSMKEHDEENRKSRAVAYKKCRSILDKAGGTMVMTATAETLKEAFDSDYISAQIDLMLNLKDGNPTEAIGKAKELIESCCKTILEFEGCTVDKDWEVPRLVDETFKHFHLMPKNISDDVKGAKSIKAILGNLKAIAQGVAELRNLYGSGHGKSSSYKGLESRHASLAIGSSTTLVRFLWDSYERHHNNEVN, MGSDKIHHHHHHMVNIEIDEGSGFCFGVTTAIRKAEEELAKGNTLYCLGDIVHNGQECERLKKMGLITINHEEFAQLHDAKVLLRAHGEPPETYAIARTNNIEIIDATCPVVLRLQKRIKQEYDNVPASQDTQIVIYGKNGHAEVLGLVGQTHGKAIVIETPAEAAHLDFTKDIRLYSQTTKSLEEFWQIIEYIKEHISPDATFEYYDTICRQVANRMPNIRKFAAAHDLIFFVCGRKSSNGKILYQECKKINPNSYLIDQPEEIDRNLLEDVRSIGICGATSTPKWLMEECKKAILNEK, MGSDKIHHHHHHMVRLWLMYKNKEEQANMQVEKDVIYDSAYNLAADLYVPDEANGGAIVYAHGGGWFRGDKENESDLGKYFADAGYLFTIPNFRLAPKYLYPTAQNDFDHFINWLLASPYDFDRERLGLLGASSGGTMVLQNSLASGYPLVAWSPVVDFANWVQKNQMVKASVDGKKELGLTEIHEIHDSFYKYFVQTYLGGLDPRLLTAVNPTNHLTDQLGPALLFNSADELMPLPSALHFLQQAAMFGRDIGLHVVPGTGHARDYTSFALPETKRFFDHHLFTTVEDKTLNKATD, MGSDKIHHHHHHMVSMIKTAQGYSSELTRDQSELTQFWSQVQQESLAIEPGITLAYGFIRHEDNRRAIVISNGRVESYLKYQELIYDCYQQGFSVYALDHRGQGLSSRLTTNPHQGHVEHFSDYVDDFKVFIERVVKPERHKELFLVGHSMGGAIATHYIHQDPTTFNAAVLSAPMYGIILPLPTVVIKQLATKMINTQPVIGSHLVATNYIIGGRDYQAISFKLNQLTHSQVRYQHYRDLYQQQPQCQLGSPTNQWLAEAIDAAKASIDMARGSPIPLLILQAGKDKIVCNQAQNKALAGLCQRIIIEGAFHEVFIETDKLRDKALKALFDFINQHSEII, MGSDKIHHHHHHMVTLVRQVEIQPYQPKYAQAVSELFHLCVHNIEHERYSQAQLNAWSKAPRSAKHWHLRLSRSQAWIILVTSTESLSKICVGFINVETDYYHRGYIDSFYIHPDWQRQGVGGRVYCELEQWARGQGYASLSVDASYLSKGLFTQLGFVQIQRNYQQKLGQVLTSFYMTKKL, MGSDKIHHHHHHMVVNMFEDIDTFEEAFNKLLREVLEFDLQNPFKDAKKVLCIEPHPDDCVIGMGGTIKKLSDMGVEVIYVCMTDGYMGTTDESLSGHELAAIRRKEEEESARLLGVKKIYWLNYRDTELPYSREVRKDLTKILRKEQPDGVFAPDPWLPYESHPDHRRTGFLAIESVAFSQLPNFSNTDLDIGLNPYNSGSFIALYYTHKPNYIVDITDLMELKLKAIRVHRSQFPDDIWEKWEPFLRTIAMFYGEKIGVRYGEGFRIMPGLFYHITPFTDLI, MGSDKIHHHHHHMVWRDAEGQVHALEDRCPHRGARLSLGWNLGDRVACWYHGVEVRADGVVADVPAVHECPMTGTKCLKSYPVIEQHGAIFIWFGIDANEQPAPLEFPEQLASEEWSSFLCQADWKVNHQYAIDNVMDPMHGTYLHCTSHSMAEGERTAEMKHRTTENGFVFEKEGQTGVNFDWVEYGSTGASWLRLSIPYRKQFGPGGEFWIVGYATPIDANNTRVFFWRCRKVSGWQRNVWRFLYRNHLEQLHWDVLEQDRIILENLAPNARAREFLYQHDVGLARLRRLMKKEAEKQLKKIAALNASNRIEMQEEAHG, MGSDKIHHHHHHMVWRDLLEVIYKLDPKPGLGLEIAKHVQPKHLGIIAYLALSCDNLGEALIRYHDFHRLIYDGSPLVVELQGRYGSIRWEATELHPTQLTDEIAIALVIQFLRLFMSHEDVQLHEVRFLNAAPKNIRVYEQYFQCPVRFSQPRTELLIPITEIHKPLSSADHTLQQLLVQQAQALLEQLPNSTQLDQRLQHSILTGLQKNQYQIEYIAAQLGLSVRQLQRHLQQQSTTFQERVQQVRFMLATEYLKDPHLSLQEIALLLCYSEQSAFQRAFKHWTKQTPQQWRDQFLDKE, MGSDKIHHHHHHMWENFLFSVDRKETTMSMRLLARKMLFMRGASWQHPVIRLGLTALDPVDAIIRSATGLRSLPRYSTRVRSNGLSNQFGGGKFARQGRVILHMLQRHCALSPKSRVLEIGCGCGRTAVQLASFLEAEKYVGMDIEMVSLEACRDNPHLKRRGFKFDLIDIQNNEYNPKGRFRADEYRFSYLDGSMDCVFLISVFTHMLPEDVSNYVTEIGRMLDRGGMCLFSTFLIDHGRGGRGLNFAHDGNGFSYYDVRMPEIAVAYPQRFFEDSFGRAGLVLHEVKLGSWRDDGRGSYPEFGQDVLVFKKAA, MGSDKIHHHHHHMWSFKSMFNTPEDPEKDAYEFYGKVQPGITTPTQKTCNFVALDLKSKDRDAIKAMFKKWTVMADRMMDGDTVGKTSNNPLMPPVDTGESIGLGASKLTITFGISKSLMKKIGLSSKIPDAFKDLPHFPNDQLIDDYSDGDIMIQACSNDSQVSFHAVHNLVRPFRDIVKVRWAQSGFISAKGKETPRNLMAFKDGTINPRKSNQLKDYVFIDDGWAKHGTYCVVRRIQIHIETWDRTALEEQEATFGRKRHSGAPLTGGKEFDEIDLKAKDSHGEYIIDKDAHTRLAKEANTSILRRAFNYVDGTDDRTGNFETGLLFIAFQKATKQFIDIQNNLGSNDKLNEYITHRGSASFLVLPGVSKGGYLGETLFD, MGSDKIHHHHHHMWTPMRDGPPKGMHGGKSERPISPRMKPSGLRIWTGSPRAANSERASDEALSCTHIQTCVARLRDTFPSGTVERGQHGGTTVNLIDGIKGNRFAVFGRAGMDMFADPIGTKSEDATTFRADLGGSSANICAGLVKLGAEAALVTSVSDDAVGRFCVNRLRDYGVETRYVRAVGGEARTSLAVYESRIDDFQNVIYRNGAADFQVTKADMDAVDYSAFSALITAGTVFAAEPSRSATFRAFEHARTAGLPVIFDIDYRPYSWPSPEVASEVLTRAGEASDLIVGNDEEFGFMAGHIDKGLEKARALAAQGRMVIYKMGEAGAITIAEGQEIRTGIYPVTAVKPNGAGDSFMAGLLASIAQGHALSDAVLRGSACASIVVSQPGCANAMPTTAELEAFLASHPGPTV, MGSDKIHHHHHHMYLDVIEPDHPDYLTALLVKADLYDTEGLTEVAREKLLEASQISQEPLVIFGLAEIEMNLSDFQAAIQHYAQLDNRAILEETGVSTYERIGRAYASLGKFETAIEFLEKAVEIEFDETTVFEVATLLYDQEEYQRANLYFKQLDSMNPDFAGYEYNYALSLHAEHQTKQALRMLQQGLSKNEFDSQLLLLASQLSYELHDKKAAENYLLKVLETAEDDEEALMRLSNLYLEENRFEDVINLDRADIDSVLTKWNIAKAYQKLEADTKALEIYDTLIVDLADNPDFLKDYIYILRKFGYDEKVKTFADKYLQLVPDDNDIADLREQLQ
